Residue numbers refer to the chain shown, from its start.

The text below walks through data of patent publication US20160046944, “APTAMER TO IL-17 AND USE THEREOF” (THE UNIVERSITY OF TOKYO, published 2016).

B1: aptamer No. 12 (mixed)
mixed: GGGUAGCCGGAGGAGTCAGTAAUCGGUACCC
modifications: 2'-OMe (M), 2'-F (F) as marked; uppercase DNA [1,2,3,4,7,8,10,11,13,14,17,18,21,22,23,24,25,26,27,28]
B2: aptamer No. 2 (mixed)
RNA: B1 mixed with T16U, T20U
modifications: 2'-OMe (M), 2'-F (F), PS (S) as marked; uppercase DNA [2'-OMe at 1-3,10; 2'-F at 4,7,8,16,17,20,23,24,27; PS at 6; DNA at 9,29-31]
B3: aptamer No. 14 (mixed)
mixed: B1 mixed
modifications: 2'-OMe (M), 2'-F (F) as marked; uppercase DNA [1,2,3,4,6,7,8,10,11,13,14,17,18,21,22,23,24,25,26,27,28]
B4: aptamer No. 25 (mixed)
mixed: B1 mixed with U27T
modifications: 2'-OMe (M), 2'-F (F) as marked; uppercase DNA [2'-OMe: 1-4,7,8,10,13,14,21,23-26,29-31; 2'-F: 17]
B5: aptamer No. 20 (mixed)
mixed: B1 mixed
modifications: 2'-OMe (M), 2'-F (F), PS (S) as marked; uppercase DNA [2'-OMe: 1-4,7,8,10,13,14,21,23-26,28; 2'-F: 17,18,27; PS: 6]
B6: aptamer No. 15 (mixed)
mixed: B1 mixed
modifications: 2'-OMe (M), 2'-F (F) as marked; uppercase DNA [2'-OMe: 1-4,7,8,10,13,14,21,23-26,28; 2'-F: 6,11,17,18,27]
B7: aptamer No. 19 (mixed)
mixed: B1 mixed
modifications: 2'-OMe (M), 2'-F (F), PS (S) as marked; uppercase DNA [2'-OMe: 1-4,7,8,10,13,14,21-26,28; 2'-F: 17,18,27; PS: 6]
B8: aptamer No. 24 (mixed)
mixed: B1 mixed with U27T
modifications: 2'-OMe (M), 2'-F (F) as marked; uppercase DNA [2'-OMe: 1-4,7,8,10,13,14,23-26,29-31; 2'-F: 17]
B9: aptamer No. 3 (mixed)
RNA: B1 mixed with T16U, T20U
modifications: 2'-OMe (M), 2'-F (F) as marked; uppercase DNA [1,2,3,4,5,7,8,10,11,13,14,16,17,18,20,21,22,23,24,25,26,27]
B10: aptamer No. 13 (mixed)
mixed: B1 mixed
modifications: 2'-OMe (M), 2'-F (F) as marked; uppercase DNA; (N) printed, likely (M) [1,2,3,4,7,8,10,11,13,14,17,18,21,23,24,25,26,27,28]
B11: aptamer No. 4 (mixed)
RNA: B1 mixed with T16U, T20U
modifications: 2'-OMe (M), 2'-F (F), PS (S) as marked; uppercase DNA [1,2,3,4,6,7,8,10,11,13,14,16,17,18,20,21,22,23,24,25,26,27,28]
B12: aptamer No. 23 (mixed)
mixed: B1 mixed with U27T
modifications: 2'-OMe (M), 2'-F (F), PS (S) as marked; uppercase DNA [2'-OMe: 1-4,7,8,10,13,14,23-26,29-31; 2'-F: 17; PS: 6]
B13: aptamer No. 16 (mixed)
mixed: GGGGUAGCCGGAGGAGTCAGTAAUCGGUACCCC
modifications: 2'-OMe (M), 2'-F (F), PS (S) as marked; uppercase DNA [2'-OMe: 1-5,8,9,11,14,15,22-27,29; 2'-F: 12,18,19,28; PS: 7]
B14: aptamer No. 18 (mixed)
mixed: B13 mixed
modifications: 2'-OMe (M), 2'-F (F), PS (S) as marked; uppercase DNA; (NI) printed, likely (M) [2'-OMe: 1-5,8,9,11,14,15,24-27,29 (26 printed NI, likely M); 2'-F: 12,18,19,28; PS: 7]
B15: aptamer No. 5 (mixed)
mixed: B13 mixed
modifications: 2'-OMe (M), 2'-F (F), PS (S) as marked; uppercase DNA; SEQ ID NO:2 [1,2,3,4,5,6,7,8,9,11,12,14,15,18,19,22,23,24,25,26,27,28]
B16: aptamer No. 17 (mixed)
mixed: B13 mixed
modifications: 2'-OMe (M), 2'-F (F), PS (S) as marked; uppercase DNA [2'-OMe: 1-5,8,9,11,14,15,22,24-27,29; 2'-F: 12,18,19,28; PS: 7]
B17: aptamer No. 27 (mixed)
mixed: B1 mixed with U27T
modifications: g(M)g(M)g(M)u(M)Ag(S)c(M)c(M)Gg(M)Agg(M)a(M)gTc(F)agTa(M)Au(M)c(M)g(M)g(M)Ta(M)c(M)c(M)c(M)
B18: aptamer No. 37 (mixed)
mixed: B1 mixed with U27T
modifications: g(M)g(M)g(M)u(M)Agc(M)c(M)Gg(M)Agg(M)a(M)gTc(F)agTaAu(M)c(M)g(M)g(M)Ta(M)c(M)c(M)c(M) (one (M) misprinted as (NI))
B19: aptamer No. 38 (mixed)
mixed: B1 mixed with U27T
modifications: g(M)g(M)g(M)u(M)Agc(M)c(M)Gg(M)Agg(M)a(M)gTc(F)agTa(M)au(M)c(M)g(M)g(M)Ta(M)c(M)c(M)c(M)

The first series addresses T1, IL-17 (Homo sapiens, UniProt Q16552 Q16552:24-155).
T1 sequence: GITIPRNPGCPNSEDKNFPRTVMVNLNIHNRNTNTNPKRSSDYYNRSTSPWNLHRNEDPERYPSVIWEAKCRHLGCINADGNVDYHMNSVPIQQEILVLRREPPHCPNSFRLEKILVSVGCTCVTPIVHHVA
The series can be described thus: cell_activity; NIH3T3 IL-6 release. The settings on record: chain copies: 2. The protocol:
(§1) First, human IL-17 and the aptamer produced in Example 1-1 were pre-incubated at 37° C. for 30 min, and added to NIH3T3 cell (ATCC, CRL1658) together with mouse TNFα (2 ng/mL). Then, after incubation for 24 hr, the culture supernatant was collected, and the amount of IL-6 was measured by BD Cytometric Bead Array (BD Biosciences). The IL-17 inhibitory action of each aptamer was determined from the amount of IL-6. For comparison with the aptamer of the present invention, a conventionally-known aptamer (aptamer No. 50) against IL-17 was used.
By IC50 is commonly meant the concentration that gives 50% inhibition. B1 showed an IC50 of 0.52 nM.
The same measure, in the same setting: under B2 stands 0.68 nM.
For B3, the IC50 came out at 0.5 nM.
In turn, B4 yielded an IC50 of 1.64 nM.
The molecule B5 displayed an IC50 of 0.37 nM.
The molecule B6 returned an IC50 of 0.63 nM.
As for B7, 2.78 nM corresponded to half-maximal inhibition (IC50).
On the same count and under the same terms, under B8 stands 1.77 nM; under B9, 2.08 nM; under B10, 0.4 nM.
B11 had an IC50 of 2.78 nM.
In turn, B12 had a 50% inhibitory concentration (IC50) of 1.34 nM.
With B13, half-maximal inhibition (IC50) required 0.25 nM.
For the molecule B14, half-maximal inhibition (IC50) was put at 0.15 nM.
Still for that read-out and setting: the value for B15 was 0.13 nM.
B16 came in with an IC50 of 0.3 nM.

The target in the next series is T2, IL-17 (IL-17A) (Homo sapiens, UniProt Q16552 Q16552:24-155).
T2 sequence: T1 sequence
The series can be described thus: cell_activity; IL-6 release, NIH3T3. As to conditions: chain copies: 2. The protocol: as §1
The molecule B17 had a half-maximal inhibitory concentration (IC50) of 2.45 nM.
In turn, B18 showed a concentration for half-maximal inhibition (IC50) of 1.64 nM.
Turning to B19, the midpoint of inhibition, the IC50, lay at 0.31 nM.

The target in the next series is T1, IL-17. The series can be described thus: SPR; IL-17R-Fc on chip. The settings on record: chain copies: 2. The protocol: Whether aptamers shown by aptamer Nos. 1-49 inhibit the binding of IL-17 and IL-17 receptor was evaluated by the surface plasmon resonance method.
For the measurement, BIAcore2000 manufactured by BIAcore was used. […] As an analyte, IL-17 (100 or 150 nM) and an aptamer (50 or 100 nM) shown by aptamer No. 1-49 were mixed, maintained for 15 min and after that the mixture was flown.
(In SPR one partner is held on a chip, and binding of the other changes the refractive index at the surface.)
Turning to B1, the binding signal was 24.4 % IL-17/IL-17R binding remaining.
In the case of B2, the binding signal is 32 % IL-17/IL-17R binding remaining.
On the same count and under the same terms, under B3 stands 16.5 % IL-17/IL-17R binding remaining.
Same read-out and setting: under B4 stands 11.7 % IL-17/IL-17R binding remaining; under B5, 18.5 % IL-17/IL-17R binding remaining.
For B6, the binding signal is 14.2 % IL-17/IL-17R binding remaining.
On to B7, for which the binding signal is 8.46 % IL-17/IL-17R binding remaining.
The same measure, in the same setting: the value for B8 was 15.2 % IL-17/IL-17R binding remaining; that for B9 was 25.3 % IL-17/IL-17R binding remaining; that for B10 was 13.8 % IL-17/IL-17R binding remaining.
The same measure, in the same setting: the value for B11 was 26.8 % IL-17/IL-17R binding remaining; that for B12 was 13.4 % IL-17/IL-17R binding remaining; that for B13 was 27.9 % IL-17/IL-17R binding remaining.
Still for that read-out and setting: the value for B14 was 13.6 % IL-17/IL-17R binding remaining; that for B15 was 32.3 % IL-17/IL-17R binding remaining.
Turning to B16, the binding signal was 4.21 % IL-17/IL-17R binding remaining.
